Substitutions are numbered along the chain they refer to.
T1: Nuclease K D582R (D582R)
T1 chain: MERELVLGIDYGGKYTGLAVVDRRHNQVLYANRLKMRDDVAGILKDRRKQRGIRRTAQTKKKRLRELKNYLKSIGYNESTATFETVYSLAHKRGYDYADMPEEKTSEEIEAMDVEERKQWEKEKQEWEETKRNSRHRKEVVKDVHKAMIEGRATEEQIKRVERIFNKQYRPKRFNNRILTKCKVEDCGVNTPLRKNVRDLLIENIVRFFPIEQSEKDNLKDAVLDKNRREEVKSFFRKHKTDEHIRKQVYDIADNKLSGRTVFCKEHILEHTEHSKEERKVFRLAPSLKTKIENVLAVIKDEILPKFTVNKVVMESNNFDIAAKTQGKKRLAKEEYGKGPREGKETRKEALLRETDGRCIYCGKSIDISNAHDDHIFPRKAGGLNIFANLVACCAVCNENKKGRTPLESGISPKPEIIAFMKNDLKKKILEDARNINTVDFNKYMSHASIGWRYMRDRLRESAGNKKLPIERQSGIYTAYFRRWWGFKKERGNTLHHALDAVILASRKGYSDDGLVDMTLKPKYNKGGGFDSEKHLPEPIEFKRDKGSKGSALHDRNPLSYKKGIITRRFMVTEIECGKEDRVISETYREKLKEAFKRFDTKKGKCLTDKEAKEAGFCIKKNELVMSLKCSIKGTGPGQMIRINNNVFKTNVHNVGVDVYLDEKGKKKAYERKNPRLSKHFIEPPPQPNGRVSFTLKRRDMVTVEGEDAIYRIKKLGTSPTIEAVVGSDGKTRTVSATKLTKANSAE

T2: Nuclease K D46R (D46R)
T2 chain: T1 chain with D46R, R582D

T3: Nuclease K G42R (G42R)
T3 chain: T1 chain with G42R, R582D

B1: Nuclease K EMX1-T7 guide ; EMX1-T7 target (ssRNA ; dsDNA)
RNA: CUUUAGCAAGGGACUAUUCAGUUACAGUUAAGGCUCUGAAAAGAGCCUUAAUUGUAAAACGCCUAUACAGUGAAGGGAUAUACGCUUGGGUUUGUCCAGCCUGAGCCUCUAUGCCAGAAAUGGCGCCUUCAUCGUGGGUUAGGACAUUUAAAUUUAAAAACUAUUCAGCACUGUUUGCUCUUGUCAGCUUGGUGGCAGA
DNA 1: CTTTAGCAAGGGACTATTCA
DNA 2: TGAATAGTCCCTTGCTAAAG
B2: Nuclease K AAVS1-T3 guide ; AAVS1-T3 target (ssRNA ; dsDNA)
RNA: UUGUGAGAAUGGUGCGUCCUGUUACAGUUAAGGCUCUGAAAAGAGCCUUAAUUGUAAAACGCCUAUACAGUGAAGGGAUAUACGCUUGGGUUUGUCCAGCCUGAGCCUCUAUGCCAGAAAUGGCGCCUUCAUCGUGGGUUAGGACAUUUAAAUUUAAAAACUAUUCAGCACUGUUUGCUCUUGUCAGCUUGGUGGCAGA
DNA 1: TTGTGAGAATGGTGCGTCCT
DNA 2: AGGACGCACCATTCTCACAA

Columns and labels:
Assay in all cases: cell_activity; PAM NGG; HEK293T
Conditions in all cases: tags: N- and C-terminal NLS
Nuclease K D582R = target: T1, Nuclease K D582R
Nuclease K D46R = target: T2, Nuclease K D46R
Nuclease K G42R = target: T3, Nuclease K G42R

Row | Binder | binding signal (Nuclease K D582R) | binding signal (Nuclease K D46R) | binding signal (Nuclease K G42R)
1 | B1 | 31.8 fold vs Nuclease K | 9.86 fold vs Nuclease K | 5.3 fold vs Nuclease K
2 | B2 | 3.68 fold vs Nuclease K | 6.71 fold vs Nuclease K | 3.94 fold vs Nuclease K

From patent US20260275311, “CRISPR NUCLEASE POLYPEPTIDES AND GENE EDITING SYSTEMS COMPRISING SUCH” (ARBOR BIOTECHNOLOGIES, INC., published 2026)
